Experimental findings from patent US20240343811A1 (SHANDONG SIMCERE BIOPHARMACUTICAL, published 2024) are described below.

For test [1], the target named is T1, human CD16a (158F), full length, on FlpinCHO cells (human, UniProt P08637 17-254). Description: FACS on FlpinCHO cells.
Test [2] has as its target T2, human CD16a (158V), full length, on cells (human, UniProt P08637 17-254).
T2 construct: also used as target for the bought Jurkat-NFAT reporter line stably expressing human CD16a (158V); also called FlpinCHO-human CD16a (158V); FlpinCHO-CD16a (158V)
Description: FACS on FlpinCHO cells.

The target in test [3] is T3, human CD16b (NA1), full length, on FlpinCHO cells (human, UniProt O75015 17-200).
T3 construct: also called FlpinCHO-human CD16b (NA1)
T3 chain: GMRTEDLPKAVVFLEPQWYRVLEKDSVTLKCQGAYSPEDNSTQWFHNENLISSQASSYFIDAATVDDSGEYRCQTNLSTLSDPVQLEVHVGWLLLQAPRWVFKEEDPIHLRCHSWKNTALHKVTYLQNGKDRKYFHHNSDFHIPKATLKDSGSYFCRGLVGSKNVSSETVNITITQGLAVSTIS
Description: FACS on FlpinCHO cells.

In test [4] the target is T4, human CD16b (NA2), full length, on FlpinCHO cells (human, UniProt O75015 17-200).
T4 construct: also called FlpinCHO-human CD16b (NA2)
T4 chain: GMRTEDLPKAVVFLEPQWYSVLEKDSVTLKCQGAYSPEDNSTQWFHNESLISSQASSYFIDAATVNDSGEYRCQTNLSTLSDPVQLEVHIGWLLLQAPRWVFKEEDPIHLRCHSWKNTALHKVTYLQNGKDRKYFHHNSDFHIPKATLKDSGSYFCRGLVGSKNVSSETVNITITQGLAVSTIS
Description: FACS on FlpinCHO cells.

Test [5] deals with T5, cynomolgus monkey CD16, full length, on FlpinCHO cells (cynomolgus monkey, UniProt Q8SPW2 17-254).
T5 construct: also called FlpinCHO-cyno CD16; Flipin CHO-cyno CD16
T5 sequence (Q8SPW2 other isoform, or with tags, fused parts or gaps limits assumed): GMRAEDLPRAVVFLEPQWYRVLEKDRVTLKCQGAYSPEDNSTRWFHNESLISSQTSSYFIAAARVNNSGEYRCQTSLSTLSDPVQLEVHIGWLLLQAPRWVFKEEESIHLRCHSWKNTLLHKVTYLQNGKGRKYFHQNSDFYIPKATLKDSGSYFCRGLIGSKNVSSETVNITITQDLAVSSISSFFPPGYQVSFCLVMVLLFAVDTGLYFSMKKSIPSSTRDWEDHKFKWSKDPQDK
Description: FACS on FlpinCHO cells.

The target in test [6] is T1, human CD16a (158F), full length, on …. Nature of the test: FACS on FlpinCHO cells. The essentials: (§1)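 EC50 comes from fitted concentration–MFI curves. Antibody dilutions were bound to the cells for 1 hour on ice in PBS blocking buffer with 2% BSA, followed by washing and flow cytometric readout.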
This is another data set of the same source.

In test [7] the target is T2, human CD16a (158V), full length, on …. Description: FACS on FlpinCHO cells. The essentials:
as §1
This is another data set of the same source.

The target in test [8] is T3, human CD16b (NA1), full length, on …. Nature of the test: FACS on FlpinCHO cells. The essentials: (§2)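 EC50 values come from fitted MFI curves measured by FACS. Antibody dilutions were bound for 1 hour on ice to CD16b-transfected FlpinCHO cells suspended in PBS with 2% BSA blocking solution.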
Test [9] has as its target T4, human CD16b (NA2), full length, on …. Nature of the test: FACS on FlpinCHO cells. The essentials:
as §2

Test [10] addresses T6, CD16 on primary human NK cells (human, UniProt P08637 17-254).
T6 construct: whole, on cells; also called resting NK cells
Nature of the test: FACS on human NK cells. The method in brief: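 EC50 came from curve fitting of flow-cytometric MFI. Antibody titrations were bound for 1 hour on ice to fresh human NK cells blocked in PBS with 2% (w/w) BSA (2×10⁶ cells/ml), followed by five PBS washes before acquisition.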

The target of test [11] is T5, cynomolgus monkey CD16, full length, on …. Nature of the test: FACS on FlpinCHO cells. The procedure:
The required cells were scale-up cultured in a T-75 cell culture flask to the logarithmic growth phase. The medium was aspirated, and the cells were washed twice with a PBS buffer and then digested with trypsin. After the digestion was terminated, the cells were washed twice with the PBS buffer. The cells were counted, and then the cell pellet was resuspended with a [PBS+2% (w/w) BSA] blocking solution to 2×10⁶ cells/ml, and added to a 96-well FACS reaction plate at 50 μl/well. […] 50 μl/well of the antibody to be detected was added at different concentrations, and incubated on ice for 1 hour. […] The mixture was centrifuged and washed 5 times with PBS, and FACS (FACS Canto II, purchased from BD Company) was used for detection and result analysis. Data analysis was performed by software (CellQuest) to obtain the mean fluorescence intensity (MFI) of the cells. Then, software (GraphPad Prism8) was used for analysis, data fitting and EC50 value calculation.
Flipin CHO-cyno CD16 cells were subjected to FACS detection and data analysis according to the method of Example 3.1.
This is another data set of the same source.

For test [12], the target named is T2, human CD16a (158V), full length, on …. Nature of the test: cell-based or functional assay.
Test [13] addresses T1, human CD16a (158F), full length, on …. Description: FACS on FlpinCHO cells. The source holds these as a separate data set.
The target in test [14] is T2, human CD16a (158V), full length, on …. Description: FACS on FlpinCHO cells. The source holds these as a separate data set.
Test [15] addresses T3, human CD16b (NA1), full length, on …. Description: FACS on FlpinCHO cells. The method in brief:
as §2

For test [16], the target named is T4, human CD16b (NA2), full length, on …. Nature of the test: FACS on FlpinCHO cells. The method in brief: as §2
The target in test [17] is T5, cynomolgus monkey CD16, full length, on …. Description: FACS on FlpinCHO cells. The essentials:
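FlpinCHO cells expressing full-length cynomolgus CD16, blocked in PBS/2% BSA at 2×10⁶ cells/ml, incubated with antibody at various concentrations 1 h on ice. Flow cytometry MFI fitted to give EC50.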
This is another data set of the same source.

Test [18] concerns the target T2, human CD16a (158V), full length, on …. Nature of the test: cell-based or functional assay. The source holds these as a separate data set.
The target of test [19] is T1, human CD16a (158F), full length, on …. Description: FACS, biotinylated antibody. Background: In flow cytometry, cells or beads pass a laser one at a time.
In test [20] the target is T2, human CD16a (158V), full length, on …. Description: FACS, biotinylated antibody.
For test [21], the target named is T6, CD16 on primary human NK cells. Description: FACS on human NK cells, biotinylated antibody.
For test [22] the target is unchanged. Description: FACS on human NK cells, biotinylated antibody. The source holds these as a separate data set.
Test [23] addresses T1, human CD16a (158F), full length, on …. Description: FACS, biotinylated antibody, +10 mg/mL human immunoglobulin.
Test [24] concerns the target T2, human CD16a (158V), full length, on …. The description is as above.
Test [25] deals with T6, CD16 on primary human NK cells. Nature of the test: FACS on human NK cells, biotinylated antibody, +10 mg/mL human immunoglobulin.
Test [26] shares this target. The test is described as above. This is another data set of the same source.

Values joined by “and” are separate entries in the source; they are usually repeats but may differ in a detail not shown here. Identical values can stand only once. Like-named read-outs stand apart in the source and are kept apart here.

B1: 3G8 antibody as used to check the stably transfected cell lines (Example 1.3) (antibody, V domains shown)
VH: QVTLKESGPGILQPSQTLSLTCSFSGFSLRTSGMGVGWIRQPSGKGLEWLAHIWWDDDKRYNPALKSRLTISKDTSSNQVFLKIASVDTADTATYYCAQINPAWFAYWGQGTLVTVSA
VL: DTVLTQSPASLAVSLGQRATISCKASQSVDFDGDSFMNWYQQKPGQPPKLLIYTTSNLESGIPARFSASGSGTDFTLNIHPVEEEDTATYYCQQSNEDPYTFGGGTKLEIK
notes: also called CD16 antibody
B1: the Mean fluorescence intensity in test [1] amounted to 3080; in test [2], 5870; in test [3] it was 28100; in [4], 24800; in test [5], 5500.

B2: P2C47 scFv-hFc (Fc fusion)
chain: SYVLTQPSSVSVAPGQTATISCGGHNIGSKNVHWYQQRPGQSPVLVIYQDNKRPSGIPERFSGSNSGNTATLTISGTQAMDEADYYCQVWDNYSVLFGGGTKLTVLGGGGSGGGGSGGGGSQVQLVQSGAEVKKPGESLKVSCKASGYTFTSYYMHWVRQAPGQGLEWMGAIEPMYGSTSYAQKFQGRVTMTRDTSTSTVYMELSSLRSEDTAVYYCARGSAYYYDFADYWGQGTLVTVSSEPKSSDKTHTCPPCPAPEEFGGPSVFLFPPKPKDTLMISRTPEVTCVVVAVSHEDPEVKFNWYVDGVEVHNAKTKPREEQYNSTYRVVSVLTVLHQDWLNGKEYKCKVSNKALPAPIEKTISKAKGQPREPQVYTLPPSREEMTKNQVSLTCLVKGFYPSDIAVEWESNGQPENNYKTTPPVLDSDGSFFLYSKLTVDKSRWQQGNVFSCSVMHEALHNHYTQKSLSLSPGK
notes: also called control antibody P2C47
The EC50 is the concentration at which the effect is half-maximal. For the molecule B2, the EC50 in test [6] was 0.62 nM and 0.98 nM; in [7], 0.85 nM and 1.03 nM; in test [8], 3.18 nM and 5.5 nM; in [9], 14.2 nM and 5.12 nM; in test [10], 0.84 nM; in [11], 0.58 nM. The EC50 in [13] is 0.56 nM; in test [14], 0.54 nM; in test [15], 3.36 nM; in [17], 0.62 nM; in test [19], 0.41 nM and 0.39 nM; in [20], 0.58 nM and 0.77 nM. Moreover, the EC50 in test [21] was 1.33 nM; in test [22], 0.99 nM; in test [23] it was 2.97 nM and 2.63 nM; in test [24], 3.32 nM and 2.87 nM; in test [25], 5.4 nM; in test [26], 4.3 nM. The “Maximum mean fluorescence intensity” value was 2540 in test [10]; 29200 in test [11]; 9400 in test [13]; 8800 in test [14]; 43600 in test [15]; 63400 in test [16]. For the same molecule, the “Maximum mean fluorescence intensity” value in [17] stood at 20100; in [21], 33000; in [22], 30100; in test [25], 30900; in test [26], 28000. The “EC50, activation activity for Jurkat cell” value in test [12] was found to be 0.04 nM; in test [18] it was 0.06 nM. Also, the values for the Maximum fluorescence value in test [12] and in test [18] were 158000 and 149000, respectively.
